From PMC9795577
Each block holds one substance with its values, some of them ahead of it.

Experiments:
[1] = target: FLAG-tagged yeast PEX13 with two cysteines (104 and 131) and all tyrosines of the YG domain converted into serines (UniProt P80667); test: disulfide crosslinking in intact membranes, FLAG IP and immunoblot quantification; settings: nonreducing SDS-PAGE, read off a plot
[2] = target: FLAG-tagged yeast PEX13 with a single cysteine at residue 104 in the YG domain (S. cerevisiae) (UniProt P80667); test: cross-linking; disulfide cross-linking of introduced cysteines in intact yeast membranes: 0, 50 or 200 μM Aldrithiol-4, 30 min at 30 °C, 20 mM HEPES-NaOH pH 7.2, 50 mM NaCl, 250 mM sucrose, 1 mM EDTA; quenched with NEM, solubilised in 0.5 % DDM, anti-FLAG IP, non-reducing or reducing SDS-PAGE, blot; also with DDM added before the oxidant, and in strains lacking PEX2, PEX5, PEX14 or PEX17
[3] = target: FLAG-tagged yeast PEX13 with a single cysteine at residue 131 in the YG domain (S. cerevisiae) (UniProt P80667); test: as above
[4] = target: FLAG-tagged yeast PEX13 with two cysteines in the YG domain (positions 104 and 131) (S. cerevisiae) (UniProt P80667); test: as above

Chain of FLAG-tagged yeast PEX13 with two cysteines (104 and 131) and all tyrosines of the YG domain converted into serines (P80667 other isoform, or with tags, fused parts or gaps): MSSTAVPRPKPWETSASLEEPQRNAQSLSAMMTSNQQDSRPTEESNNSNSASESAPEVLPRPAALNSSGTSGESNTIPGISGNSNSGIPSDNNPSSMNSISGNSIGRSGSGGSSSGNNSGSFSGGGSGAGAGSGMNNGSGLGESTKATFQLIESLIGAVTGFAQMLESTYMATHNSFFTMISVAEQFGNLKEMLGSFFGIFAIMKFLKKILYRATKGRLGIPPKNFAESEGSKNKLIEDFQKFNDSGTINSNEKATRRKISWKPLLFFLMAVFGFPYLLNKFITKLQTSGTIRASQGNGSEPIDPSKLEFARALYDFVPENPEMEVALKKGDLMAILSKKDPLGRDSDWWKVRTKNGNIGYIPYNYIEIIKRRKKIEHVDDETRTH
Chain of FLAG-tagged yeast PEX13 with two cysteines in the YG domain (positions 104 and 131) (P80667 whole entry, the tested form may be a part): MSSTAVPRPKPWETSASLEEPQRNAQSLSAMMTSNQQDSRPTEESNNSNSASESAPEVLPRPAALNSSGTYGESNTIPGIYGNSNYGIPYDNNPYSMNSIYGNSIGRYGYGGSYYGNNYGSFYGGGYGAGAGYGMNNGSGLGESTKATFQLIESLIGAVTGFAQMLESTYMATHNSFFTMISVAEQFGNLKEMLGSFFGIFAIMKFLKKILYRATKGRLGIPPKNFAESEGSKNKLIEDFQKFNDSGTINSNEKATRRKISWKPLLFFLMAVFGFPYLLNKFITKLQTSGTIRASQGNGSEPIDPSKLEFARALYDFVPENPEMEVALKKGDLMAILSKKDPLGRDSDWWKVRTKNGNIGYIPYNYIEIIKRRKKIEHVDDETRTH
Chain of FLAG-tagged yeast PEX13 with a single cysteine at residue 131 in the YG domain (P80667 whole entry, the tested form may be a part): as above
Chain of FLAG-tagged yeast PEX13 with a single cysteine at residue 104 in the YG domain (P80667 whole entry, the tested form may be a part): as above

other: fraction crosslinked ([1]; lane 4 (parent lane 1), lowest point of oxidant series, 0 µM Aldrithiol-4, parent: est. 0.10): 0.06 | other: fraction crosslinked ([1]; lane 5 (parent lane 2), middle point of oxidant series, 50 µM Aldrithiol-4, parent: est. 0.67): 0.1 | other: fraction crosslinked ([1]; lane 6 (parent lane 3), highest point of oxidant series, 200 µM Aldrithiol-4, parent: est. 0.70): 0.18
Substance: FLAG-tagged yeast PEX13 with two cysteines in the YG domain (positions 104 and 131) (from UniProt P80667) Y71S; Y81S; Y86S; Y90S; Y95S; Y101S; Y108S; Y110S; Y114S; Y115S; Y119S; Y123S; Y127S; Y133S

percent disulfide-linked dimers [2]: > 70%
Substance: FLAG-tagged yeast PEX13 with a single cysteine at residue 104 in the YG domain (from UniProt P80667 1-386) (natural protein)

percent disulfide-linked dimers [3]: > 70%
Substance: FLAG-tagged yeast PEX13 with a single cysteine at residue 131 in the YG domain (from UniProt P80667 1-386) (natural protein)

stoichiometry N [4]: > 8
Substance: FLAG-tagged yeast PEX13 with two cysteines in the YG domain (positions 104 and 131) (from UniProt P80667 1-386) (natural protein)
